Results: article PMC11500415, “Chemical inhibition of stomatal differentiation by perturbation of the master-regulatory bHLH heterodimer via an ACT-Like domain” (Nature Communications, 2024)

T1: SCRM-MUTE heterodimer (Arabidopsis thaliana, UniProt Q9M8K6)
T1 construct: expressed in transfected cells; host or cells: yeast strain AH109
T1 sequence (Q9M8K6 1-202): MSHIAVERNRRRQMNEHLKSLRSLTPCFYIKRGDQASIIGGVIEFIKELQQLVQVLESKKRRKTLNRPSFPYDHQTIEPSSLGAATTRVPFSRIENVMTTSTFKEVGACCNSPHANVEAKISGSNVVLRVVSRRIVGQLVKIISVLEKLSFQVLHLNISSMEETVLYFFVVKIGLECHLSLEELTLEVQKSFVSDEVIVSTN

T2: SCRM-SPCH heterodimer (Arabidopsis thaliana, UniProt Q700C7)
T2 construct: truncated SPCH and FAMA proteins lacking their N-terminal domain were used in yeast; expressed in transfected cells; host or cells: yeast strain AH109
T2 sequence (Q700C7 98-364 limits assumed): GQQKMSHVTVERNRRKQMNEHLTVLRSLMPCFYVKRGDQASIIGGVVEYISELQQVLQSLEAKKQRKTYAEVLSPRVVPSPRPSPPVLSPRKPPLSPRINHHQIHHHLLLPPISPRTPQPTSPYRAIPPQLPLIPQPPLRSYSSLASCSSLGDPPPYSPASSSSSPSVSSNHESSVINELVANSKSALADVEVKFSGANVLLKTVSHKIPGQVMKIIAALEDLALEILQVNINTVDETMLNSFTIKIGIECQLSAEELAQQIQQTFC

B1: SCREAM (SCRM), recombinant full-length protein (1-494) (natural protein, A. thaliana, UniProt Q9LSE2 1-494, looked up)
chain: MGLDGNNGGGVWLNGGGGEREENEEGSWGRNQEDGSSQFKPMLEGDWFSSNQPHPQDLQMLQNQPDFRYFGGFPFNPNDNLLLQHSIDSSSSCSPSQAFSLDPSQQNQFLSTNNNKGCLLNVPSSANPFDNAFEFGSESGFLNQIHAPISMGFGSLTQLGNRDLSSVPDFLSARSLLAPESNNNNTMLCGGFTAPLELEGFGSPANGGFVGNRAKVLKPLEVLASSGAQPTLFQKRAAMRQSSGSKMGNSESSGMRRFSDDGDMDETGIEVSGLNYESDEINESGKAAESVQIGGGGKGKKKGMPAKNLMAERRRRKKLNDRLYMLRSVVPKISKMDRASILGDAIDYLKELLQRINDLHNELESTPPGSLPPTSSSFHPLTPTPQTLSCRVKEELCPSSLPSPKGQQARVEVRLREGRAVNIHMFCGRRPGLLLATMKALDNLGLDVQQAVISCFNGFALDVFRAEQCQEGQEILPDQIKAVLFDTAGYAGMI
notes: SCRM (ICE1), A. thaliana, residues 1-494; called full-length in the results; The methods describe thrombin removal of GST for all recombinant proteins; For the BLI runs of SCRM with MUTE one partner must have kept GST (anti-GST probes); also called ICE1; source: E. coli BL21, purified (glutathione resin, thrombin digestion, Superdex-200); not shown: GST, N-terminal, cleaved
B2: MUTE, recombinant full-length protein (1-202), as used in ITC (natural protein, A. thaliana, UniProt Q9M8K6 1-202, looked up)
chain: T1 sequence (Q9M8K6 1-202)
notes: called full-length in the results; source: E. coli BL21, purified (glutathione resin, thrombin digestion, Superdex-200); not shown: GST, N-terminal, cleaved

Assays:
stomatal movement = test system: stomatal movement; design: method as in PMID 35042960; conditions: previous chemical screens and SAR studies; cited from earlier work
SCRM-MUTE heterodimer = target: T1, SCRM-MUTE heterodimer; test: Y2H growth and quantitative α-galactosidase assay; format: cell-based; conditions: 50 μM; 1 mM 3-AT
Experimental: (§1) Y2H assays were performed using the Matchmaker^TM Two-Hybrid System (Clontech). Bait (pGBKT7) and prey (pGADT7) constructs were co-transformed into the yeast strain AH109 using Frozen-EZ Yeast Transformation II Kit (Zymo Research, T2001). The resulting transformants were spotted on SD ( − Leu, −Trp) and SD ( − Trp, −Leu, −His) selection media containing different concentrations of 3-amino-1,2,4-triazole (Sigma, A8056) as previously reported. Quantitative α-galactosidase assay was also performed according to manufactural instruction (Clontech). Briefly, the transformants were incubated in 2 ml SD medium with 0, 10, 50 100 μM Stomidazolone (3) or SIM3* (7) with rotary shake (220 rpm) at 30 °C overnight. The cultured media containing yeast were transferred to microtubes and centrifuged to obtain the supernatant. The colorimetric assay was performed by incubating 8 μL of supernatant with 24 μL Assay Buffer that contains 0.5 M sodium acetate (pH 4.5) (Nakalai tesque, 31137-25): 100 mM p-nitrophenyl α-D-Galactopyranoside Solution (Sigma N0877) = 2:1 (v/v) at 30 °C for 60 min, then terminated by adding 960 μL 1X Stop Solution (0.1 M sodium carbonate, Fujifilm Wako 195-01582). After OD410 was recorded, α-galactosidase units were calculated according to the protocol (Clontech, P3024-1).

SCRM-FAMA heterodimer = target: T3, SCRM-FAMA heterodimer (Arabidopsis thaliana, UniProt Q56YJ8); test: Y2H growth and quantitative α-galactosidase assay; format: cell-based; conditions: 50 μM; 1 mM 3-AT; N-terminally truncated FAMA
T3 construct: truncated SPCH and FAMA proteins lacking their N-terminal domain were used in yeast; expressed in transfected cells; host or cells: yeast strain AH109
Experimental: as §1

SCRM-SPCH heterodimer = target: T2, SCRM-SPCH heterodimer; test: Y2H growth and quantitative α-galactosidase assay; format: cell-based; conditions: 50 μM; 1 mM 3-AT; N-terminally truncated SPCH
Experimental: as §1

[1] = test system: Arabidopsis wild-type (WT) seedlings; test: Stomatal development bioassay, seedlings in liquid culture; format: in vivo; conditions: 50 μM; WT seedlings, liquid culture
Experimental: Arabidopsis accession Columbia (Col-0) was used as wild-type. […] Their genotype and transcript reduction were confirmed. The presence of transgenes/mutant alleles were confirmed by genotyping. For liquid culture with Stomidazolone (AYSJ929, compound 3), the analogs (AYSJ1059 (compound 5) and AYSJ1061 (compound 6)), degraded compound lzx103 (compound 4), and SIM3* (compound 7), all compounds were dissolved in dimethyl sulfoxide (DMSO, Molecular biology grade, Fujifilm Wako, Japan 046-21981), Col-0 seeds were sown in 96-well plates (TL5003; True Line) containing 95 μL of 1/2 MS media containing 0.5% sucrose with rotary shaking at 140 rpm under continuous light at 22 °C. Five μL of compounds were dissolved in DMSO at 10 mM and diluted with liquid 1/2 MS media to 1 mM and added on 1-day-old seedlings (final concentration, 50 μM). Seedlings were incubated for 8 days, and at day 9 seedling abaxial cotyledons were observed through confocal microscopy. For liquid culture of scrm-D_S343 and scrm-D_S423, 1/2 MS liquid media without sucrose was used. For the solid culture, 0, 20, 50 or 100 μM Stomidazolone were solidified with low-melting agarose (5805S, PrimeGelTM Agarose LMT 1-20 K, TAKARA Bio). Briefly, 1/2 MS salt, 0.5% sucrose, and 0.8% low melting agarose were mixed in water and autoclaved. After cooling the medium at around 30 °C, Stomidazolone (500x, dissolved in DMSO) was added and poured into 90 mm petri dishes (Asnol Petri Dish JP φ90 x 15 mm, 3-1491-01, AS ONE). Col-0 seeds were sown on Stomidazolone-containing 1/2 MS agarose media and grown under continuous light for 9 days.
For confocal microscopy, cell peripheries of seedlings were visualized with propidium iodide (Sigma, P4170). Images were acquired using LSM800 or LSM700 (Zeiss) using a 20x lens. The GFP, YFP reporter and PI signals were detected with excitation at 488 nm and an emission filter of 410 to 546 nm, at 488 nm and an emission filter of 410 to 546 nm, and with excitation at 561 nm and 582–617 nm emission range, respectively. Raw data were collected with 1024 × 1024 pixel images. For qualitative image presentation, Adobe Photoshop CC was used to trim and uniformly adjust the contrast/brightness.
For quantitative analysis of the abaxial leaf epidermis, confocal images were taken on the days after germination as indicated in the Figure legends. Preparation of images was done as described previously[32],[70]. For counting epidermal cell types, stomatal density, stomatal precursor cells (meristemoids), total stomata-lineage cells (stomata and meristemoids) were calculated by counting cell types in an area of 0.4 mm^2 (0.63 mm × 0.63 mm) and plotted as per mm^2. A series of Z-stack confocal images was obtained to obtain images covering the epidermis and capturing GFP/YFP signal from the reporter lines. The area and the number of epidermal cells were quantified by using FIJI-ImageJ. Statistical analyses were performed using R ver. 4.0.2. Sample sizes (n) are indicated and defined in each legend. For the multiple sample comparison, 1-way ANOVA was performed followed by a post hoc Tukey HSD test. For the two-sample comparison, Student’s T-test was performed. Graphs were generated using R ggplot2 package. For all boxplots, each box represents IQR (interquartile range), in which top, middle line, and bottom indicating 75, 50, and 25 percentiles, respectively, and the bar representing maximum to minimal values. Each magenta dot represents jittered individual data point. The datapoints that go beyond the bar are outliers, which are indicated as black dots. If the data point is greater than Q3 + 1.5*IQR (above the third quartile is greater than 1.5 times of the interquartile range) or less than Q1 − 1.5*IQR, that data point is classified as outlier. The color of Boxplot graph was based on ColorBrewer.org. The value of n, the number of each experiment or samples, the means of error bars, and how statistical significance was defined are indicated in a relevant figure legend. […]

[2] = target: B2; test: ITC; SCRM to MUTE in the presence of AYSJ1061 (6); Malvern PEAQ-ITC; PBS with 2% DMSO and 1 mM DTT; methods: 30 °C, pH 7.4; legend of Supplementary Table 2: pH 7.2, 25 °C; conditions: both partners purified
[3] = target: B2; test: ITC; SCRM to MUTE, no compound; Malvern PEAQ-ITC; PBS with 2% DMSO and 1 mM DTT; methods: 30 °C, pH 7.4; legend of Supplementary Table 2: pH 7.2, 25 °C; means of two experiments; conditions: both partners purified
[4] = target: B2; test: ITC; SCRM to MUTE in the presence of AYSJ1059 (5); Malvern PEAQ-ITC; PBS with 2% DMSO and 1 mM DTT; methods: 30 °C, pH 7.4; legend of Supplementary Table 2: pH 7.2, 25 °C; conditions: both partners purified
[5] = target: B2; test: ITC; SCRM to MUTE pre-incubated with Stomidazolone (3); Malvern PEAQ-ITC; PBS with 2% DMSO and 1 mM DTT; methods: 30 °C, pH 7.4; legend of Supplementary Table 2: pH 7.2, 25 °C; conditions: both partners purified
[6] = target: B1; test: ITC; SCRM to MUTE in the presence of AYSJ1061 (6); Malvern PEAQ-ITC; PBS with 2% DMSO and 1 mM DTT; methods: 30 °C, pH 7.4; legend of Supplementary Table 2: pH 7.2, 25 °C; conditions: both partners purified
[7] = target: B1; test: ITC; SCRM to MUTE in the presence of AYSJ1059 (5); Malvern PEAQ-ITC; PBS with 2% DMSO and 1 mM DTT; methods: 30 °C, pH 7.4; legend of Supplementary Table 2: pH 7.2, 25 °C; conditions: both partners purified

T3 sequence (Q56YJ8 190-414, one chain of several): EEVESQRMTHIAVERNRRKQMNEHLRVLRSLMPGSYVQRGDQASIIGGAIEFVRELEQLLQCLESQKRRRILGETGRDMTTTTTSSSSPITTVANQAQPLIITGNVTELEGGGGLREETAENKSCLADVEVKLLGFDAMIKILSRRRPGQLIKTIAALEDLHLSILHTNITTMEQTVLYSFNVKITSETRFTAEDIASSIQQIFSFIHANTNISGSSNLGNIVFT

Cc1nc(-c2ccccc2)c(NS(=O)(=O)c2ccccc2)o1 [SIM3*, reference compound]
effect on stomatal movement (in words) (stomatal movement): inhibit stomatal movement | effect on association in Y2H growth assay (SCRM-MUTE heterodimer): no effects | effect on association in Y2H growth assay (SCRM-FAMA heterodimer): no effects | effect on association in Y2H growth assay (SCRM-SPCH heterodimer): no effects | effect on stomatal development (in words) [1]: no effects

B1
stoichiometry N [2]: 1.1 | stoichiometry N [3]: 0.96 | stoichiometry N [4]: 1 | stoichiometry N [5]: 0.91

B2
Kd [6]: 11.4 ± 2.1 nM | Kd [7]: 9.6 ± 1.8 nM
